2 proteins from patent US20230183713A1, “SITE-SPECIFIC RECOMBINASES FOR EFFICIENT AND SPECIFIC GENOME EDITING” (TECHNISCHE UNIVERSITÄt DRESDEN, published 2023) can be followed below.

In data set [1] the target is T1, Cre recombinase monomer with R292S mutation.
T1 chain: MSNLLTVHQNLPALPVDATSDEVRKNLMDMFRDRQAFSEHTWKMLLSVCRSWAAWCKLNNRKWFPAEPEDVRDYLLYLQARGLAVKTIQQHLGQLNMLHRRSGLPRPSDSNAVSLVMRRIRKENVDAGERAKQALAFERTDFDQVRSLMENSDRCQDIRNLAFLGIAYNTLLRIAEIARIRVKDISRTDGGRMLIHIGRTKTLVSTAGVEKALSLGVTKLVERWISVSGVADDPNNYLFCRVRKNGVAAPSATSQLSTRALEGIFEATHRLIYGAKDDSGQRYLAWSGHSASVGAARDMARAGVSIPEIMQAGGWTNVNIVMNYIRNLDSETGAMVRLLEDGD

Data set [2] has as its target T2, Cre recombinase monomer with R292M mutation.
T2 chain: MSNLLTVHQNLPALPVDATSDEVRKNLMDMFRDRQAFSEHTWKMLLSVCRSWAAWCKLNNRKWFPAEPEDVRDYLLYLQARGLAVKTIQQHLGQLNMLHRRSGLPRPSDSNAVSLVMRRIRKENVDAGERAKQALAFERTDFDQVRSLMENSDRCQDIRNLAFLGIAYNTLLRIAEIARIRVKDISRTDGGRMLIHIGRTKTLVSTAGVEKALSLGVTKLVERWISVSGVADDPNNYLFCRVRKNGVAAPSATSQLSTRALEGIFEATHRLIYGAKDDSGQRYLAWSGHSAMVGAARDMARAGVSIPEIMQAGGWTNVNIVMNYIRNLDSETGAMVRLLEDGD

Data set [3] has as its target T3, Cre recombinase monomer with Q311R mutation.
T3 chain: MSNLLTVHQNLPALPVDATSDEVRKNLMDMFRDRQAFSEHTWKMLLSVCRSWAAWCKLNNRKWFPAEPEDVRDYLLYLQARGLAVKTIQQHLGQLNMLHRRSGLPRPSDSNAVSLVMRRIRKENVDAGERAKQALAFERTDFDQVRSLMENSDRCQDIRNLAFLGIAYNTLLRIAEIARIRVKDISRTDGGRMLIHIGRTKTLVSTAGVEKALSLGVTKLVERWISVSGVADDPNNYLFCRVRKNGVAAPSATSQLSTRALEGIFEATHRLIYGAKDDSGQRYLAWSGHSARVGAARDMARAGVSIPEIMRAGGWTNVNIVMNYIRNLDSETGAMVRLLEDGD

In data set [4] the target is T4, Cre recombinase monomer with Y324F mutation.
T4 chain: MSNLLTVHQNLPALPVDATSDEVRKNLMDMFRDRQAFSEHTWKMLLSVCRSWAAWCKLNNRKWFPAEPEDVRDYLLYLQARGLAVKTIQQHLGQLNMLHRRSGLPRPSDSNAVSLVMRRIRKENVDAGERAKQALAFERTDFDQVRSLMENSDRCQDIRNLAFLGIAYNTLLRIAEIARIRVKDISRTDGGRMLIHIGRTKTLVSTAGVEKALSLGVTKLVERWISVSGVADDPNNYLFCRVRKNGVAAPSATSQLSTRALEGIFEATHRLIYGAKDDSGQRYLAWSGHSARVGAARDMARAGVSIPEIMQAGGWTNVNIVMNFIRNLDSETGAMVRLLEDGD

The target in data set [5] is T5, Cre recombinase monomer with Y324W mutation.
T5 chain: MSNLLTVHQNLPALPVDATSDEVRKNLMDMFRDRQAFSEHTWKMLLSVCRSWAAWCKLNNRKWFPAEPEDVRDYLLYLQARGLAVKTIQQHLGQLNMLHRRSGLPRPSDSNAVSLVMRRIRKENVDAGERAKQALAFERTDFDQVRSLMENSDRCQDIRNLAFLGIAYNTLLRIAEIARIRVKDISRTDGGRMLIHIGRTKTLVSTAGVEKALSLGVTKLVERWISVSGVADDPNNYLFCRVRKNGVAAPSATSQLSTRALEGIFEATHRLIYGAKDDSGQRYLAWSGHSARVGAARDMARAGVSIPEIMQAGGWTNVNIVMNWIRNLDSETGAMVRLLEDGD

The target in data set [6] is T6, Cre recombinase monomer with R292I mutation.
T6 chain: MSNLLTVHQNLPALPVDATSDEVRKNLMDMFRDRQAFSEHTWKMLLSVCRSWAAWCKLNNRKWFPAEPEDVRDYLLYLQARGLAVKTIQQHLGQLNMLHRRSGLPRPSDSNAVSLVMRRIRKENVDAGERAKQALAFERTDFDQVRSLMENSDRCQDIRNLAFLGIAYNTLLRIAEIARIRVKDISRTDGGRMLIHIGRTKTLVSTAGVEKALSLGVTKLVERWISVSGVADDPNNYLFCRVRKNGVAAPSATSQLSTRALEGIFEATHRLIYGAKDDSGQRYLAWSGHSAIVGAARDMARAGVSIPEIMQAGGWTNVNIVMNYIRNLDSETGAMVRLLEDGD

The target of data set [7] is T7, Cre recombinase monomer with R292N mutation.
T7 chain: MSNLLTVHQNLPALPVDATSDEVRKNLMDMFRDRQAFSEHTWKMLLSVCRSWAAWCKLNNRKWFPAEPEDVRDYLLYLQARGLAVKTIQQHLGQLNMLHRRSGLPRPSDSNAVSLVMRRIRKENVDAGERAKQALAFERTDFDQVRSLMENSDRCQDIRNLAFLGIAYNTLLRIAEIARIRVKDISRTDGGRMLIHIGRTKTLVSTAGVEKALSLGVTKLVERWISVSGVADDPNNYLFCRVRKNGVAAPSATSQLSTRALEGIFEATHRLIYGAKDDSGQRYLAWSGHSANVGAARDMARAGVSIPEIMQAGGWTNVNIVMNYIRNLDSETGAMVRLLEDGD

The target of data set [8] is T8, Cre recombinase monomer with R292T mutation.
T8 chain: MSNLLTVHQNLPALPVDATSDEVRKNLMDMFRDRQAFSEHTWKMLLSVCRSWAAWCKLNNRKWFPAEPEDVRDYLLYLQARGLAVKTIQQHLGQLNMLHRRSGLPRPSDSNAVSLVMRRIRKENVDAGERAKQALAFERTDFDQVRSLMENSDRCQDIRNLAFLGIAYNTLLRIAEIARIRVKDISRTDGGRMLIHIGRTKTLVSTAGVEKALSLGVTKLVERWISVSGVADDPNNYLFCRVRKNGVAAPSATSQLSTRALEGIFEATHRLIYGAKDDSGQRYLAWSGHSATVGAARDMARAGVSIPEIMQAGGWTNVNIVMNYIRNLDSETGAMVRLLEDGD

B1: Cre recombinase monomer with E176I mutation (protein)
chain: MSNLLTVHQNLPALPVDATSDEVRKNLMDMFRDRQAFSEHTWKMLLSVCRSWAAWCKLNNRKWFPAEPEDVRDYLLYLQARGLAVKTIQQHLGQLNMLHRRSGLPRPSDSNAVSLVMRRIRKENVDAGERAKQALAFERTDFDQVRSLMENSDRCQDIRNLAFLGIAYNTLLRIAIIARIRVKDISRTDGGRMLIHIGRTKTLVSTAGVEKALSLGVTKLVERWISVSGVADDPNNYLFCRVRKNGVAAPSATSQLSTRALEGIFEATHRLIYGAKDDSGQRYLAWSGHSARVGAARDMARAGVSIPEIMQAGGWTNVNIVMNYIRNLDSETGAMVRLLEDGD
Take B1: the “Median dimer activity (recombination on loxP)” value was 40% in data set [1]; 43% in data set [2]; 36% in data set [3]; 67% in data set [4]; 50% in data set [5].

B2: Cre recombinase monomer with E176V mutation (protein)
chain: MSNLLTVHQNLPALPVDATSDEVRKNLMDMFRDRQAFSEHTWKMLLSVCRSWAAWCKLNNRKWFPAEPEDVRDYLLYLQARGLAVKTIQQHLGQLNMLHRRSGLPRPSDSNAVSLVMRRIRKENVDAGERAKQALAFERTDFDQVRSLMENSDRCQDIRNLAFLGIAYNTLLRIAVIARIRVKDISRTDGGRMLIHIGRTKTLVSTAGVEKALSLGVTKLVERWISVSGVADDPNNYLFCRVRKNGVAAPSATSQLSTRALEGIFEATHRLIYGAKDDSGQRYLAWSGHSARVGAARDMARAGVSIPEIMQAGGWTNVNIVMNYIRNLDSETGAMVRLLEDGD
As to B2, the “Median dimer activity (recombination on loxP)” value stood at 33% in data set [6], 28% in data set [1], 31% in data set [7] and 45% in data set [8].
